Reference: publication PMC6274998, “Mycobacterium tuberculosis ClpC1 N-Terminal Domain Is Dispensable for Adaptor Protein-Dependent Allosteric Regulation” (International Journal of Molecular Sciences, 2018)

Molecular target: T1, ∆NTD-ClpC1 (ClpC1 truncation mutant lacking N-terminal residues M1-Y145) (Mycobacterium tuberculosis H37Rv, UniProt P9WPC9 146-848)
T1 construct: ClpC1, M. tuberculosis H37Rv, Rv3596c, lacking N-terminal residues M1-Y145 (begins at residue 146); also called ∆NTD-ClpC1 truncation; not shown: His6-SUMO, N-terminal, cleaved
T1 sequence: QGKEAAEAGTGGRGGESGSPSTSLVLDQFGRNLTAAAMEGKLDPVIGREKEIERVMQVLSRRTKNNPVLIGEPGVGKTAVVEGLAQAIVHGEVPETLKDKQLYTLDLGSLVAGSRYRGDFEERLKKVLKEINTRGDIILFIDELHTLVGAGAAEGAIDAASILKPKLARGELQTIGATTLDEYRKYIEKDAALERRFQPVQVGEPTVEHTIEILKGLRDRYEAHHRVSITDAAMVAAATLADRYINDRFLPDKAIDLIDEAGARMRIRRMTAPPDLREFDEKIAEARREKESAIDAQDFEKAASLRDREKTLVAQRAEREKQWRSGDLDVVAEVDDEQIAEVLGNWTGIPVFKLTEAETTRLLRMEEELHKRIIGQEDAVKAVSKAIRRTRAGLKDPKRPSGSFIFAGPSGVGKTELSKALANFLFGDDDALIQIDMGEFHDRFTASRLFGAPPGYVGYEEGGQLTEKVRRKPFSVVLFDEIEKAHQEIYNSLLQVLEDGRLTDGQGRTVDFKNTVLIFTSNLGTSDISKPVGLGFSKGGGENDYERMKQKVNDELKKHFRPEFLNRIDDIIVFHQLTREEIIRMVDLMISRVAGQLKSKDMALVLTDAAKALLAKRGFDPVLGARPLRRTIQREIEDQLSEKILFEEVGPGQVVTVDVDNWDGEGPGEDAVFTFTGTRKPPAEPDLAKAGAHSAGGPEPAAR
Experiment: pull-down
Conditions: both partners purified

B1: His6-SUMO-ClpS (Mycobacterium tuberculosis ClpS adaptor protein, His6-SUMO fusion) (natural protein)
chain: MAVVSAPAKPGTTWQRESAPVDVTDRAWVTIVWDDPVNLMSYVTYVFQKLFGYSEPHATKLMLQVHNEGKAVVSAGSRESMEVDVSKLHAAGLWATMQQDR
notes: also called His6-ClpS; His6-tagged ClpS; not shown: His6, N-terminal, kept; SUMO, N-terminal, kept
B1: binds.
